# Laboratory results from patent publication US20220195041A1 (IMMUNORIZON, published 2022).
# Residue numbers refer to the chain shown, from its start.
# T1: cyno CD3epsilon-His (cynomolgus CD3epsilon extracellular fusion antigen, Cat #CDE-05226, Acro Biosystems) (cynomolgus, UniProt Q95LI5 22-117)
# T1 construct: extracellular domain; Bought reagent; also called cyno CD3e antigen; not shown: His tag
# T1 sequence (looked up): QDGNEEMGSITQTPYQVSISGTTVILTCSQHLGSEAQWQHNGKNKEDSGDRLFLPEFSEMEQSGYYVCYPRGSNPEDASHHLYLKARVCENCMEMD
# B1: Construct 1: Tri-Specific variable light chain-variable heavy chain (VLVH), anti-CD3epsilon Fab with two anti-EGFR scFv (VL-VH), no regulatory domains (bispecific antibody)
# heavy: GGSGGSEVQLVESGGGLVQPGGSLRLSCAASGFTFNTYAMNWVRQAPGKGLEWVARIRSKYNNYATYYADSVKDRFTISRDDSKNTLYLQMNSLRAEDTAVYYCVRHGNFGNSYVSWFAYWGQGTMVTVSSASTKGPSVFPLAPSSKSTSGGTAALGCLVKDYFPEPVTVSWNSGALTSGVHTFPAVLQSSGLYSLSSVVTVPSSSLGTQTYICNVNHKPSNTKVDKRVEPKSCPPCGGGGSDIQMTQSPSSLSASVGDRVTITCQASQDISNYLNWYQQKPGKAPKLLIYDASNLETGVPSRFSGSGSGTDFTFTISSLQPEDIATYFCQHFDHLPLAFGGGTKVEIKGGGGSGGGGSGGGGSQVQLQESGPGLVKPSETLSLTCTVSGGSVSSGDYYWTWIRQSPGKGLEWIGHIYYSGNTNYNPSLKSRLTISIDTSKTQFSLKLSSVTAADTAIYYCVRDRVTGAFDIWGQGTMVTVSS
# light: GGSGGSQAVVTQEPSLTVSPGGTVTLTCRSSTGAVTTSNYANWVQQKPGQAPRGLIGGTNKRAPGTPARFSGSLLGGKAALTLSGVQPEDEAEYYCALWYSNLWVFGGGTKLTVLGQPKAAPSVTLFPPSSEELQANKATLVCLISDFYPGAVTVAWKADSSPVKAGVETTTPSKQSNNKYAASSYLSLTPEQWKSHRSYSCQVTHEGSTVEKTVAPTECPPCSGGGSDIQMTQSPSSLSASVGDRVTITCQASQDISNYLNWYQQKPGKAPKLLIYDASNLETGVPSRFSGSGSGTDFTFTISSLQPEDIATYFCQHFDHLPLAFGGGTKVEIKGGGGSGGGGSGGGGSQVQLQESGPGLVKPSETLSLTCTVSGGSVSSGDYYWTWIRQSPGKGLEWIGHIYYSGNTNYNPSLKSRLTISIDTSKTQFSLKLSSVTAADTAIYYCVRDRVTGAFDIWGQGTMVTVSS
# notes: Heterodimer of one HC and one LC polypeptide (about 100 kDa), no Fc; also called TriBody (VLVH); Tribody EGFR (VL-VH)
# B2: Construct 3: Precursor Tri-Specific Variable Light-Variable Heavy (VLVH), anti-CD3epsilon Fab, two anti-EGFR scFv, HSA and CAP regulatory domains linked by … (bispecific antibody)
# heavy: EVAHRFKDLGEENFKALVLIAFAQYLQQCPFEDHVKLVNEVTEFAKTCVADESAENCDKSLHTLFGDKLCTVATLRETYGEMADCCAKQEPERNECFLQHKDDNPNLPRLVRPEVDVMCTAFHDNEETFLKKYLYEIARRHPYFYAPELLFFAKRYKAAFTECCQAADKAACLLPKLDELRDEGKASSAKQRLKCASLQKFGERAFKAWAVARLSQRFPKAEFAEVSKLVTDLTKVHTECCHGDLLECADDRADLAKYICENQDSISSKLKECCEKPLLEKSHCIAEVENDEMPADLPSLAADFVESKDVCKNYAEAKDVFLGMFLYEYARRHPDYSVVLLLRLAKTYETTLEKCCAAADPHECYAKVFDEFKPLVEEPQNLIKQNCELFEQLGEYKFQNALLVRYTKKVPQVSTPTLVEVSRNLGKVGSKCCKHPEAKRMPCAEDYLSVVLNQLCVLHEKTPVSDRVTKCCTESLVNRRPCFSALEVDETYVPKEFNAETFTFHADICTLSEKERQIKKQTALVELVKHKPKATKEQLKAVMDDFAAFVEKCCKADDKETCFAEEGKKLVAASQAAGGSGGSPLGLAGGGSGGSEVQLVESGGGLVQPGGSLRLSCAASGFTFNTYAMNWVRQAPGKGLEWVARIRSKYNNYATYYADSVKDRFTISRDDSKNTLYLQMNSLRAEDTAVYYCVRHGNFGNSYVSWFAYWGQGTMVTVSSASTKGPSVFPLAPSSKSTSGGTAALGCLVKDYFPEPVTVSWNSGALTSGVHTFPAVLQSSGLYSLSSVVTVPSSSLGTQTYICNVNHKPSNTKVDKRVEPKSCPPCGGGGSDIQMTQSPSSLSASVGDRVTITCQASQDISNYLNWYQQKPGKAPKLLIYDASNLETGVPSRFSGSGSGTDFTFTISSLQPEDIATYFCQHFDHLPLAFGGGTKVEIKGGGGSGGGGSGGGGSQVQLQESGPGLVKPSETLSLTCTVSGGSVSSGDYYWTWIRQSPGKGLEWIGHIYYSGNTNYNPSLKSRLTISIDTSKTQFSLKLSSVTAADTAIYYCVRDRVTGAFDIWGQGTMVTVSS
# light: QDGNEEMGGITQTPYKVSISGTTVILTGGSGGSPLGLAGGGSGGSQAVVTQEPSLTVSPGGTVTLTCRSSTGAVTTSNYANWVQQKPGQAPRGLIGGTNKRAPGTPARFSGSLLGGKAALTLSGVQPEDEAEYYCALWYSNLWVFGGGTKLTVLGQPKAAPSVTLFPPSSEELQANKATLVCLISDFYPGAVTVAWKADSSPVKAGVETTTPSKQSNNKYAASSYLSLTPEQWKSHRSYSCQVTHEGSTVEKTVAPTECPPCSGGGSDIQMTQSPSSLSASVGDRVTITCQASQDISNYLNWYQQKPGKAPKLLIYDASNLETGVPSRFSGSGSGTDFTFTISSLQPEDIATYFCQHFDHLPLAFGGGTKVEIKGGGGSGGGGSGGGGSQVQLQESGPGLVKPSETLSLTCTVSGGSVSSGDYYWTWIRQSPGKGLEWIGHIYYSGNTNYNPSLKSRLTISIDTSKTQFSLKLSSVTAADTAIYYCVRDRVTGAFDIWGQGTMVTVSS
# notes: Uncleaved precursor, about 170 kDa; also called ProTriBody-C EGFR (VL-VH); Precursor Tri-body construct (VL-VH)
# B3: Construct 5: Precursor Tri-Specific Non-Cleavable (NC) Variable Light Variable Heavy (VLVH), anti-CD3epsilon Fab, two anti-EGFR scFv, HSA and CAP regulatory … (bispecific antibody)
# heavy: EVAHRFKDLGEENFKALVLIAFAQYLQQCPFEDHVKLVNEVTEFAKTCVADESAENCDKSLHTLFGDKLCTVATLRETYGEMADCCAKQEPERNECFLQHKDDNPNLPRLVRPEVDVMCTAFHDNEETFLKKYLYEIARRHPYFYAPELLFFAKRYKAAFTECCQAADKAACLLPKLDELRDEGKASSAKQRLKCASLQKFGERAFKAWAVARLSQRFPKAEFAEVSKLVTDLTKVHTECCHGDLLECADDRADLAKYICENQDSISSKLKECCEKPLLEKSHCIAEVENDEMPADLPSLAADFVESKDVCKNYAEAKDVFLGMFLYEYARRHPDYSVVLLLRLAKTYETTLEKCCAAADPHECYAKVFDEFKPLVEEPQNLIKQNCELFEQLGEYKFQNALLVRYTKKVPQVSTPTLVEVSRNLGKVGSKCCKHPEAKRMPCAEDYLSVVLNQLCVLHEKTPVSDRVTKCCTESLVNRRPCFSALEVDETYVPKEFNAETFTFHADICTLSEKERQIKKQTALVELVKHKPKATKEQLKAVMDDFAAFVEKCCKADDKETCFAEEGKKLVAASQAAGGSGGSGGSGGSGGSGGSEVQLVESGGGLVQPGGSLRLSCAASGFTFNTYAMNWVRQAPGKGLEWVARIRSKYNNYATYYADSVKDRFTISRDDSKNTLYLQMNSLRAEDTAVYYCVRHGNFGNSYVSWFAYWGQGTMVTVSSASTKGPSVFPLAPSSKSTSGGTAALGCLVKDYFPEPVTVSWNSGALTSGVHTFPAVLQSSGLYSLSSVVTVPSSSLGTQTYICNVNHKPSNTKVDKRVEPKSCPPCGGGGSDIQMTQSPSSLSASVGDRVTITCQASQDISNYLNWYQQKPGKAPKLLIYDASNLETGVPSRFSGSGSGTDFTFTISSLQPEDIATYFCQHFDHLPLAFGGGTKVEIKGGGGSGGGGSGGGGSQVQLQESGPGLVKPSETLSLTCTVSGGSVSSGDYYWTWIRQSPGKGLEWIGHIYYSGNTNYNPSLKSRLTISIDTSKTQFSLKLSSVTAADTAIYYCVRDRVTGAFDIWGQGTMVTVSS
# light: B2 light with P34G, L35G, G36S, L37G, A38G, G39S
# notes: also called ProTriBody-NC EGFR (VL-VH); Non-Cleavable Precursor Tri-body construct (VL-VH)
# B4: Construct 2: Tri-Specific variable heavy chain-variable light chain (VHVL), anti-CD3epsilon Fab with two anti-EGFR scFv (VH-VL), no regulatory domains (bispecific antibody)
# heavy: GGSGGSEVQLVESGGGLVQPGGSLRLSCAASGFTFNTYAMNWVRQAPGKGLEWVARIRSKYNNYATYYADSVKDRFTISRDDSKNTLYLQMNSLRAEDTAVYYCVRHGNFGNSYVSWFAYWGQGTMVTVSSASTKGPSVFPLAPSSKSTSGGTAALGCLVKDYFPEPVTVSWNSGALTSGVHTFPAVLQSSGLYSLSSVVTVPSSSLGTQTYICNVNHKPSNTKVDKRVEPKSCPPCGGGGSQVQLQESGPGLVKPSETLSLTCTVSGGSVSSGDYYWTWIRQSPGKGLEWIGHIYYSGNTNYNPSLKSRLTISIDTSKTQFSLKLSSVTAADTAIYYCVRDRVTGAFDIWGQGTMVTVSSGGGGSGGGGSGGGGSDIQMTQSPSSLSASVGDRVTITCQASQDISNYLNWYQQKPGKAPKLLIYDASNLETGVPSRFSGSGSGTDFTFTISSLQPEDIATYFCQHFDHLPLAFGGGTKVEIK
# light: GGSGGSQAVVTQEPSLTVSPGGTVTLTCRSSTGAVTTSNYANWVQQKPGQAPRGLIGGTNKRAPGTPARFSGSLLGGKAALTLSGVQPEDEAEYYCALWYSNLWVFGGGTKLTVLGQPKAAPSVTLFPPSSEELQANKATLVCLISDFYPGAVTVAWKADSSPVKAGVETTTPSKQSNNKYAASSYLSLTPEQWKSHRSYSCQVTHEGSTVEKTVAPTECPPCSGGGSQVQLQESGPGLVKPSETLSLTCTVSGGSVSSGDYYWTWIRQSPGKGLEWIGHIYYSGNTNYNPSLKSRLTISIDTSKTQFSLKLSSVTAADTAIYYCVRDRVTGAFDIWGQGTMVTVSSGGGGSGGGGSGGGGSDIQMTQSPSSLSASVGDRVTITCQASQDISNYLNWYQQKPGKAPKLLIYDASNLETGVPSRFSGSGSGTDFTFTISSLQPEDIATYFCQHFDHLPLAFGGGTKVEIK
# notes: Heterodimer of one HC and one LC polypeptide, no Fc; also called TriBody (VHVL); Tribody (VHVL)
# B5: Construct 4: Precursor Tri-Specific Construct Variable Heavy Variable Light (VHVL), anti-CD3epsilon Fab, two anti-EGFR scFv, HSA and CAP regulatory domains … (bispecific antibody)
# heavy: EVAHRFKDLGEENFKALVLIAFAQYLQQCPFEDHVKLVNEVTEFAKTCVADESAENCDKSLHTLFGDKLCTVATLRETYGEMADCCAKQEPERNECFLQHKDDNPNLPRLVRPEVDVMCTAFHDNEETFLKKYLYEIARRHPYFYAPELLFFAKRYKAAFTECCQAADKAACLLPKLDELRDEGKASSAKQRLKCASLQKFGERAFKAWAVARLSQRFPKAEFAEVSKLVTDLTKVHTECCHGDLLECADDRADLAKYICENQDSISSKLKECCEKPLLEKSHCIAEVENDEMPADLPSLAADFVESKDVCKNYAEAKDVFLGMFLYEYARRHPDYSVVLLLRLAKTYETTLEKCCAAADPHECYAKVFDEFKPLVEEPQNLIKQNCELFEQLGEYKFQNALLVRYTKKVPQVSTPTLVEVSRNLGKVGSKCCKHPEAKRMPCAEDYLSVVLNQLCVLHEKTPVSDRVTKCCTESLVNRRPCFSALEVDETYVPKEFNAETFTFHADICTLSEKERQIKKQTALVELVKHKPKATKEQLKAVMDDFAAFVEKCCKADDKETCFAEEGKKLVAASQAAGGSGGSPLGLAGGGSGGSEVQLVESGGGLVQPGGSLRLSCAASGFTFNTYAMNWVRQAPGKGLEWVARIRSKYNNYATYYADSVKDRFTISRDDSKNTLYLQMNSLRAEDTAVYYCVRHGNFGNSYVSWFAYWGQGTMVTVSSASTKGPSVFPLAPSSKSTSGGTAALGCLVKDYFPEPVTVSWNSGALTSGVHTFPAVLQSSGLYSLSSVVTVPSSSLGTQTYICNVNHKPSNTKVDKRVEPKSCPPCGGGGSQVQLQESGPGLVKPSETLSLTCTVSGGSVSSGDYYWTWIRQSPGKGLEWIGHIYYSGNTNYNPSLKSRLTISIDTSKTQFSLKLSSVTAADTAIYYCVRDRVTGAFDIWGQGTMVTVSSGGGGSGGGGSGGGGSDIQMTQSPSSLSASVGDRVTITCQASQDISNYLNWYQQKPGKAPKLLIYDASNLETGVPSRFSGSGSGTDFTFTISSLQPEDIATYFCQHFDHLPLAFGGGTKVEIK
# light: QDGNEEMGGITQTPYKVSISGTTVILTGGSGGSPLGLAGGGSGGSQAVVTQEPSLTVSPGGTVTLTCRSSTGAVTTSNYANWVQQKPGQAPRGLIGGTNKRAPGTPARFSGSLLGGKAALTLSGVQPEDEAEYYCALWYSNLWVFGGGTKLTVLGQPKAAPSVTLFPPSSEELQANKATLVCLISDFYPGAVTVAWKADSSPVKAGVETTTPSKQSNNKYAASSYLSLTPEQWKSHRSYSCQVTHEGSTVEKTVAPTECPPCSGGGSQVQLQESGPGLVKPSETLSLTCTVSGGSVSSGDYYWTWIRQSPGKGLEWIGHIYYSGNTNYNPSLKSRLTISIDTSKTQFSLKLSSVTAADTAIYYCVRDRVTGAFDIWGQGTMVTVSSGGGGSGGGGSGGGGSDIQMTQSPSSLSASVGDRVTITCQASQDISNYLNWYQQKPGKAPKLLIYDASNLETGVPSRFSGSGSGTDFTFTISSLQPEDIATYFCQHFDHLPLAFGGGTKVEIK
# notes: Uncleaved precursor (no MMP9 treatment); also called ProTriBody-C (VHVL); Pro-Tribody-C (VHVL)
# B6: Construct 6: Precursor Tri-Specific Non-Cleavable (NC) Variable Heavy Variable Light (VHVL), anti-CD3epsilon Fab, two anti-EGFR scFv, HSA and CAP regulatory … (bispecific antibody)
# heavy: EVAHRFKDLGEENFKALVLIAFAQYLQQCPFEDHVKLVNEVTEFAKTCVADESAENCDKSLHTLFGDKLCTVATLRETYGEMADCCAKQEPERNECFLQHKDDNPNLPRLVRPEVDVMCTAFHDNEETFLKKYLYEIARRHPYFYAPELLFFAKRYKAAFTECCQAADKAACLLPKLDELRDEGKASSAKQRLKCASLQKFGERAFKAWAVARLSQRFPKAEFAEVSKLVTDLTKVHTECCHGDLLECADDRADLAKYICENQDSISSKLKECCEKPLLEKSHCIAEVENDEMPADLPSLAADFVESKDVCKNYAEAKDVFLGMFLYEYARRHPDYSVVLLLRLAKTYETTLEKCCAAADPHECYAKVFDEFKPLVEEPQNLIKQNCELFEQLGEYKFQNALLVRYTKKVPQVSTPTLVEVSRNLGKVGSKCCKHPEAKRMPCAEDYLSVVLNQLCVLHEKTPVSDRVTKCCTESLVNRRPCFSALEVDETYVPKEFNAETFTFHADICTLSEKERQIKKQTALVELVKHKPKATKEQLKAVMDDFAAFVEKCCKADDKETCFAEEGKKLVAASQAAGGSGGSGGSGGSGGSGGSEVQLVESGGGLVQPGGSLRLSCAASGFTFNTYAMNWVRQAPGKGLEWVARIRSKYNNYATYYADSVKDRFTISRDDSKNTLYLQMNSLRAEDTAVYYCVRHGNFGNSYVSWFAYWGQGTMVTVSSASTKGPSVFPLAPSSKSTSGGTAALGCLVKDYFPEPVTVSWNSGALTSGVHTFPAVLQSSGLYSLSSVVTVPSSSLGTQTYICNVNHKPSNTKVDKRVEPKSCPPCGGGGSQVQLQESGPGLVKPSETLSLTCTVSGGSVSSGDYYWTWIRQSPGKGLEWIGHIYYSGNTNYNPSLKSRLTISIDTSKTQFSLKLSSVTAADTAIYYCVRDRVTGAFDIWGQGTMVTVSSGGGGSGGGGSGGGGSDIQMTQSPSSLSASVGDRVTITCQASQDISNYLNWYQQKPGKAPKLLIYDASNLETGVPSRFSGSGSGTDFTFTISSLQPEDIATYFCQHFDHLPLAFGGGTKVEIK
# light: B5 light with P34G, L35G, G36S, L37G, A38G, G39S
# notes: Not cleaved by MMP9, so the same molecule stands in the assays with and without MMP9; also called ProTriBody-NC (VHVL); Pro-Tribody-NC (VHVL)
# Target: T1, cyno CD3epsilon-His (cynomolgus …)
# Assay: ELISA, coated cyno CD3epsilon-His (FIG. 19B)
# Protocol: (§1) The EGFR antigens hEGFR-Fc (Cat #344-ER-050, Bio-techne) and rhesus EGFR-Fc (Cat #EGR-05252, Acro Biosystems)) were diluted to a 0.05 ug/ml concentration in PBS. Human CD3epsilon (hCD3epsilon-His (Cat #10977-H08S, Sino Biological) and cynomolgus CD3epsilon (Cat #CDE-05226, Acro Biosystems)) were diluted to a 0.01 ug/ml concentration in PBS. ELISA plate (Cat #9018, Corning) wells were filled with 100 ul of antigen suspension. Plates were incubated overnight at 4° C. Wells were blocked with 250 ul 1% BSA in PBST for 1 hr at 37° C. and then washed four times with PBST. All washes were done using Biotek (Elx 405). All construct antibodies were diluted to 15 ug/ml and prepared with 3-fold serial dilutions (12 points, including 0 ug/ml). 100 ul/well of diluted antibody construct solution was added to plate and incubated for 1 hr at 37° C. Plates were washed four times with PBST, then 100 ul/well of anti-human kappa light chain-HRP antibody (1:10000) was added and incubated for 0.5 hr at 37° C. Wells were washed 4 times with PBST, then 100 ul/well of TMB substrate was added and plates were incubated at RT for 5 min. 100 ul/well of 1.0 N HCl was added to terminate the reaction. Plates were read using ELISA plate reader at 450 nm wavelength (SpectraMax M5e). Data Analysis was performed using Graphpad Prism 5 software by using nonlinear regression (curve fit): log (agonist) vs. response, agonist is antibody concentration (nM) and response is OD value.
row,Binder,binding result
1,B1,binds
2,B2,binds
3,B3,binds
4,B4,binds

# Target: T2, rhesus EGFR-Fc (rhesus EGFR extracellular fusion antigen, Cat #EGR-05252, Acro Biosystems) (rhesus, UniProt P55245 25-645)
# T2 construct: extracellular domain; Bought reagent; also called rhesus EGFR antigen; extracellular domain of rhesus EGFR; not shown: Fc part of the bought fusion
# Assay: ELISA, coated rhesus EGFR-Fc (FIG. 18B)
# Protocol: as §1
row,Binder,binding result
1,B1,binds
2,B2,binds
3,B3,binds
4,B4,binds
5,B5,binds
6,B6,binds

# Target: T3, human CD3epsilon-His (human CD3epsilon extracellular fusion antigen, Cat #10977-H08S, Sino Biological) (human, UniProt P07766 22-126)
# T3 construct: Bought reagent; also called hCD3epsilon-His; hCD3epsilon; not shown: His tag
# Assay: ELISA, coated human CD3epsilon-His (FIG. 19A)
# Protocol: as §1
row,Binder,binding result
1,B1,binds
2,B2,binds
3,B3,binds
4,B4,binds

# Target: T4, hEGFR-Fc (EGFR extracellular fusion antigen, Cat #344-ER-050, Bio-techne) (human, UniProt P00533 25-645)
# T4 construct: extracellular domain; Bought reagent; also called human EGFR antigen; extracellular domain of hEGFR; not shown: Fc part of the bought fusion
# Assay: ELISA, coated hEGFR-Fc (FIG. 18A)
# Protocol: as §1
row,Binder,binding result
1,B1,binds
2,B2,binds
3,B3,binds
4,B4,binds
5,B5,binds
6,B6,binds

# Target: T5, human CD3epsilon on Jurkat cells (human, UniProt P07766 22-207)
# T5 construct: Endogenous CD3epsilon on Jurkat T cells, within the CD3/TCR complex; also called Jurkat Cells (Human CD3e); human-CD3e expressing Jurkat cells
# Assay: FACS on Jurkat cells (FIG. 25)
row,Binder,binding result
1,B4,binds
